B1: Candidate ID 21 (antibody, V domains shown)
VH: QVQLQQSGPELVKPGASVKISCKAPGNAFSYSWMNWVKQRPGKGLEWVGRIYPGDGDTNYNGKFMGKATLTADKSSNTAYIQLSSLTSEDSAVYFCARSGGGTLYWYFDVWGTGTTVTVSS
VL: DIVMTQSPSSLALSVGQKVTMNCRSSQSLLNSFNQKNYLAWFQQKPGQSPRLLIYFASTRESGVPDRFIGSGSGTDFTLTISSVQAEDLADYFCQQHYNTPLTFGAGTTLELK
notes: IgE PCs LN
B2: IgE mAb 12_2 (antibody, V domains shown)
VH: QAYLQQSGAELVRPGASVKMSCKASGYTFISYNMHWVKQTRRQGLEWIGAIYPGNGDTSYNQKFKGKATLTVDKSSSTAYMQLSSLTSEDSAVYFCARWDYYGSSYGAYWGQGTLVTVSA
VL: DIQMTQSPASLSVSVGETVTITCRASENIYSNLAWYQQKQGKSPQLLVYAATNLADGVPSRFSGSGSGTQYSLKINSLQSEDFGSYYCQHFWGTPWTFGGGTKLEIK
B3: Candidate ID 13 (antibody, V domains shown)
VH: QAYLQQSGAELVRPGASVKMSCKASGYTFISYNMHWVKQTRRQGLEWIGAIYPGNGDTSYNQKFKGKATLTVDKSSSTAYMQLSSLTSEDSAVYFCARWDYYGSSYGAYWGQGTLVTVSA
VL: DIQMTQSPASLSVSVGETVTITCRASENIYSNLAWYQQKQGKSPQLLVYAATNLADGVPSRFSGSGSGTQYSLKINSLQSEDFGSYYCQHFWGTPWTFGGGTKLEIK

Legend:
Der p 1 [1] = biological target: T1, Der p 1 (house dust mite, UniProt P08176 99-320); test: barcoded antigen sequencing of single IgE PCs with trapped IgE
T1 construct: Also used oligonucleotide-barcoded for cell staining; also called natural Der p 1
T1 sequence (looked up): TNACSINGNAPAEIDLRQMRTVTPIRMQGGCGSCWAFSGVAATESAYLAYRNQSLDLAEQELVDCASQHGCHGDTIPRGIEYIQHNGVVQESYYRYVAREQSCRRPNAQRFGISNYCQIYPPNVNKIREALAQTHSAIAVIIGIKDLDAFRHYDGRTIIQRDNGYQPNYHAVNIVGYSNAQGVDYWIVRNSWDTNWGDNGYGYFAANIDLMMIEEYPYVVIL

Der p 2 [2] = biological target: T2, Der p 2 (house dust mite, UniProt P49278 18-146); test: as above
T2 construct: Also used oligonucleotide-barcoded for cell staining
T2 sequence (looked up): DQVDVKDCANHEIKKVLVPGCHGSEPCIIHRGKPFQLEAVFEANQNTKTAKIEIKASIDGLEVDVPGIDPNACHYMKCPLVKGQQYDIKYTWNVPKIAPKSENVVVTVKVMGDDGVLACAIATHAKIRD

Der f 1 [3] = biological target: T3, Der f 1 (house dust mite, UniProt P16311 99-321); test: as above
T3 construct: Also used oligonucleotide-barcoded for cell staining
T3 sequence (looked up): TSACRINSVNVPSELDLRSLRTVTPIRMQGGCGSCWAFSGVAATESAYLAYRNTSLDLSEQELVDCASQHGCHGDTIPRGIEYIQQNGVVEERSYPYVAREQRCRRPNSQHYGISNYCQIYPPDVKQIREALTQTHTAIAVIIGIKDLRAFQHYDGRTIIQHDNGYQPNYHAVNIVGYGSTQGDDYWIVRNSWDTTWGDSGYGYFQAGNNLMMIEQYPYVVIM

Der p 1 [4] = biological target: T1, Der p 1; test: barcoded antigen sequencing of single IgE PCs with trapped IgE [cont.]
From the text: (§1) The barcoded antigen library was mapped by the CellRanger software to a custom short-read reference that contained the DNA tag sequences of the four barcoded antigens, namely, Der p 1, Der p 2, Der f 1 and Ole e 1. These tag sequences were quantified across all cells and were normalized by taking the centered log-ratio (CLR) per barcoded antigen across each sample capture. In addition, background antigen signal for each barcoded antigen was removed by DSB (Denoised and Scaled by Background). Both the CLR and the DSB normalized values were used to quantify the target antigen signals, namely, those for Der p 1, Der p 2 and Der f 1, against the control signal, namely, that for Ole e 1.

Der p 2 [5] = biological target: T2, Der p 2; test: as above
From the text: as §1

Der f 1 [6] = biological target: T3, Der f 1; test: as above
From the text: as §1

Der p 1 [7] = biological target: T1, Der p 1; test: antigen specificity score against Ole e 1 from barcode counts of single IgE PCs [cont.]
Description: (§2) Antigen specificity score (AgSS) for IgG were calculated by subtracting the quantile of hIL-6Rα barcoded UMI counts multiplied by a penalty factor (x) from the quantile of hIL-4Rα barcoded UMI counts, AgSS=Q_hIL-4Rα-Q_hIL-6Rα^x. AgSS for IgE were calculated with a similar formula for mouse and human single cell data. For IgE scores the target antigens were either Der p1, Der p2 or Der f1 and the control was always Ole e1.
(§3) Following processing of the three single-cell libraries, the gene expression and V(D)J region sequencing data were used to subset PCs with a valid IgE constant region and detectable expression of IgE and CD79a but lacking the expression of Ms4a1 and CD19 typically found in non-PC B cells. IgE-expressing PCs were then assessed for differential expression against additional IgA, IgG, and IgM plasma cell isotypes to further characterize the unique transcriptional signature of IgE-secreting PCs. IgE-secreting PCs were then assessed for antigen specificity by comparing the normalized levels of the target antigens, namely, Der p 1, Der p 2, or Der f 1, against the normalized level of the control antigen Ole e 1. This was performed by calculating an empirical score for each target antigen and subtracting the […] with a penalty factor. The formula used to do is set forth below: […]

Der p 2 [8] = biological target: T2, Der p 2; test: as above
Description: as §2, §3

Der f 1 [9] = biological target: T3, Der f 1; test: as above
Description: as §2, §3

Der f 1 [10] = biological target: T3, Der f 1; test: ELISA, coated Der f1
Description: (§4) After selecting allergen-specific antibodies, relative binding to Der p 1, Der p 2, and Der f 1 were quantified by ELISA. […] Specifically, binding microtiter plates were coated with 100 μl of 2 μg/mL of natural Der p 1, Der p 2, Der f 1, and Ole e 1 in PBS overnight at 4′C. IgE antibodies were prepared at a concentration of 1 μg/mL and serially diluted three-fold in PBS with 0.5% w/v BSA. After washing with 0.05% v/v Tween® 20 in PBS and blocking in PBS with 0.5% w/v BSA, 100 μl of the diluted IgE antibodies were transferred to the plates and incubated for one hour at ambient temperature. Subsequently, 100 μL of anti-mouse IgE antibody conjugated to horse-radish peroxidase (HRP) diluted at 1:5000 was added. The plates were then incubated for one hour at ambient temperature, and washed in 0.05% v/v/Tween® 20 in PBS. Subsequently, the HRP substrate 3,3′,5,5′-tetramethylbenzidine (TMB) was added. The reaction was stopped (with 100 μL of sulfuric acid 2.0 N) and optical density values determined using a plate reader at 450 nm.

Der p 1 [11] = biological target: T1, Der p 1; test: ELISA, coated Der p1
Description: as §4

Der p 2 [12] = biological target: T2, Der p 2; test: ELISA, coated Der p2
Description: as §4

Der p 2 [13] = biological target: T2, Der p 2; test: centered log-ratio of barcode count
From the text: as §1

Der f 1 [14] = biological target: T3, Der f 1; test: centered log-ratio of barcode count
From the text: as §1

Der p 2 [15] = biological target: T2, Der p 2; test: barcoded-antigen count on source cell
Der f 1 [16] = biological target: T3, Der f 1; test: barcoded-antigen count on source cell
Der p 2 [17] = biological target: T2, Der p 2; test: barcode rank score against control Ole e 1
Der f 1 [18] = biological target: T3, Der f 1; test: barcode rank score against control Ole e 1

Binder | Raw Antigen Barcode Count (Der p 1 [1]) | Raw Antigen Barcode Count (Der p 2 [2]) | Raw Antigen Barcode Count (Der f 1 [3]) | Normalized Barcode Count (Der p 1 [4]) | Normalized Barcode Count (Der p 2 [5]) | Normalized Barcode Count (Der f 1 [6]) | Antigen Score (Der p 1 [7]) | Antigen Score (Der p 2 [8]) | Antigen Score (Der f 1 [9]) | EC50 (read off the curve) (Der f 1 [10]) | EC50 (read off the curve) (Der p 1 [11]) | EC50 (read off the curve) (Der p 2 [12]) | Derp2_ab_clr (Der p 2 [13]) | Derf1_ab_clr (Der f 1 [14]) | Derp2_ab_raw (Der p 2 [15]) | Derf1_ab_raw (Der f 1 [16]) | Derp2_ab_rank (Der p 2 [17]) | Derf1_ab_rank (Der f 1 [18])
B1 | 2 | 215 | 1 | -0.398 | 4.01 | -0.795 | -0.245 | 0.412 | -0.386 |  |  |  |  |  |  |  |  | 
B2 |  |  |  |  |  |  |  |  |  | ~0.1 nM | ~0.1 nM | ~0.1 nM | 0.00487 | 1.74 | 11 counts | 57 counts | 0.453 | 0.973
B3 | 15 | 11 | 57 | 0.233 | 0.005 | 1.74 | 0.637 | 0.453 | 0.973 |  |  |  |  |  |  |  |  | 

Source: patent publication US20230349919A1 (Regeneron, published 2023)
